Reference: patent US6613506B1, “Compositions and methods for inhibiting human immunodeficiency virus infection by down-regulating human cellular genes” (Subsidiary No. 3, Inc., priority 2000, dated 2003)

Test system: HIV-1IIIB
Assay: Selection of GSEs from HeLa cell library using productive infection of CEM-ss cells
Format: cell-based
Description: Additionally, a normalized RFE library made from HeLa cells was transferred into CEM-ss cells and the neo resistant population was infected with TCID50 of 3000/10^6 cells of HIV-1IIIB. This RFE library was represented by 50×10^6 independent recombinant clones. Four and seven days after infection, a purified anti-CD4 monoclonal antibody, L77 (available from Becton Dickinson), was added at 5 Φg/mL to prevent syncytia formation. Syncytia formation is thought to be prevented by blocking the interaction between gp120 expressed on the surface of an infected cell and CD4 on the surface of an uninfected cell. […] At 10-12 days after infection, CD4^+, p24^− cell population representing uninfected cells were sorted. Genomic DNA from the CD4^+, p24^− cells was purified and used for PCR amplification of inserts with the vector-derived primers. The amplified mixture was digested with EcoRI and BamHI and cloned back into the retroviral vector. The selection was repeated for additional rounds.
The selection of GSEs from HeLa cell library using productive infection of CEM-ss cells isolated […] additional nucleic acid molecules which have substantial sequence identity with other cellular genes.
The selection of GSEs from a HeLa cell library using productive infection of CEM-ss cells isolated 21 additional nucleic acid molecules which have substantial sequence identity with other cellular genes. […] The complement of SEQ ID NO:25 is represented by SEQ ID NO:26. […] The complement of SEQ ID NO:27 is represented by SEQ ID NO:28. […] The complement of SEQ ID NO:29 is represented by SEQ ID NO:30. […] The complement of SEQ ID NO:31 is represented by SEQ ID NO:32. […] The complement of SEQ ID NO:33 is represented by SEQ ID NO:34. […] The complement of SEQ ID NO:35 is represented by SEQ ID NO:36. […] The complement of SEQ ID NO:37 is represented by SEQ ID NO:38. […] The complement of SEQ ID NO:39 is represented by SEQ ID NO:40. […] The complement of SEQ ID NO:41 is represented by SEQ ID NO:42. […] The complement of SEQ ID NO:43 is represented by SEQ ID NO:44. […] The complement of SEQ ID NO:45 is represented by SEQ ID NO:46. […] The complement of SEQ ID NO:47 is represented by SEQ ID NO:48. […] The complement of SEQ ID NO:49 is represented by SEQ ID NO:50. […] The complement of SEQ ID NO:51 is represented by SEQ ID NO:52. […] The complement of SEQ ID NO:53 is represented by SEQ ID NO:54. […] The complement of SEQ ID NO:55 is represented by SEQ ID NO:56. […] The complement of SEQ ID NO:57 is represented by SEQ ID NO:58. […] The complement of SEQ ID NO:59 is represented by SEQ ID NO:60. […] The complement of SEQ ID NO:61 is represented by SEQ ID NO:62. […] The complement of SEQ ID NO:77 is represented by SEQ ID NO:78. […] The complement of SEQ ID NO:87 is represented by SEQ ID NO:88. […] The complement of SEQ ID NO:99 is represented by SEQ ID NO:100. […] The complement of SEQ ID NO:101 is represented by SEQ ID NO:102. […] The complement of SEQ ID NO:103 is represented by SEQ ID NO:104. […] The complement of SEQ ID NO:105 is represented by SEQ ID NO: 106. […] The complement of SEQ ID NO:107 is represented by SEQ ID NO:108. […] The complement of SEQ ID NO:109 is represented by SEQ ID NO:110. […] The complement of SEQ ID NO:111 is represented by SEQ ID NO:112. […] The complement of SEQ ID NO:113 is represented by SEQ ID NO:114. […] The complement of SEQ ID NO:115 is represented by SEQ ID NO:116. […] The complement of SEQ ID NO:117 is represented by SEQ ID NO:118.

B1: CF-320: GSE, SEQ ID NO:27, sense; double-strand break DNA repair gene (nucleic acid, listed as Homo sapiens)
sense: GCCTGCACATGACGATATGGATGAGGATGATAATGTATCAATGGGTGGGCCTGATAGTCCTGATTCAGTGGATCCCGT
In the case of B1, the “HIV-suppressive activity of the GSE and active orientation” value (shortened to “HIV-suppressive activity”) is reported as “interferes with HIV infection in the sense orientation”.

B2: CF-622: GSE, SEQ ID NO:87, antisense; Rox gene (nucleic acid, listed as Homo sapiens)
antisense: GGAAAAAAAAAAAAACTACAAAAACCCTAATTTTGTACATACTGTATTTTTACTATTGAACTGTATTCTAGTGGCTGTTCATGCTCCAAGACTTTAGTTACCGAGACATGAATACTATCCATG
modifications: chemistry not fully specified
notes: Rox gene
For B2, the “HIV-suppressive activity” value was “interferes with HIV replication as an antisense molecule”.

B3: CF-630: GSE, SEQ ID NO:59, antisense; p40 protein gene (nucleic acid, listed as Homo sapiens)
antisense: GCTTAGAGTATGGAGAACATGGATGCAGAACACCAGACACCCCTTTCTCTCTCTTTGAAGGAATGGCTGGAACAATATATTTCCTGGCTGACCTGCTAGTCCCCACAAAAGCCAGGTTCG
modifications: chemistry not fully specified
notes: p40 protein gene
In the case of B3, the “HIV-suppressive activity” value is reported as “interferes with HIV replication as an antisense molecule”.

B4: H1C-16A3: GSE, SEQ ID NO:101, antisense; human GNB2L1 gene (nucleic acid, listed as Homo sapiens)
antisense: AGGCGGAGAGGATCATGTCCGGGAACTGCGGGGTAGTAGCGATCTGGGTTACCCAGCCGTTGTGGCCCTTGAGGGTGCCACGAAGGGTCATCTGCTCA
For B4, the “HIV-suppressive activity” value was “interferes with HIV replication as an antisense molecule”.

B5: CF-322: GSE, SEQ ID NO:31, sense; anti-proliferative factor (BTG-1) gene (nucleic acid, listed as Homo sapiens)
sense: CGACAGCTGCAGACCTTCAGCCAGAGCCTGCAGGAGCTGCTGGCAGAACATTATAAACATCACTGGTTCCCAGAAAA
B5 was tested, and the “HIV-suppressive activity” value was “interferes with HIV replication in the sense orientation”.

B6: H1C-16E3: GSE, SEQ ID NO:111, antisense; FYN gene (nucleic acid, listed as Homo sapiens)
antisense: TTTCTCGCTTGTATTCCTGAAGATGAGTTTGGCCCTGTGACTCTGAAGGGTCGGCTATTAACTGAGACATCCTCTGTCGGGTTGCCCCCCGTGTTATATTTCGCCATGAGGGACTTTACATCTGCCTTTCCATCCTACAAACATAGGGAACAAAAAATAGCTGAGAGACA
For B6, the “HIV-suppressive activity” value was “interferes with HIV replication as an antisense molecule”.

B7: CF-624: GSE, SEQ ID NO:57, sense; p18 protein gene (nucleic acid, listed as Homo sapiens)
sense: TGTTCTGAGAACTGACTTTCTCCCCATCCCCTTCCTAAATATCCAAAGACTGTACTGGCCAGTGTCATTTTATTTTTTCCCTCCTGACAAT
modifications: chemistry not fully specified
notes: p18 protein gene
For B7, the “HIV-suppressive activity” value was “interferes with HIV replication in a sense orientation”.

B8: H1C-6G5: GSE, SEQ ID NO:117, antisense; human glutaredoxin gene (nucleic acid, listed as Homo sapiens)
antisense: TTTAAAGGGACAGCTTCGAAGACATTTCCATCTGGTATACTTCACTAGTTAGCAATGCCCAGGAATGC
In the case of B8, the “HIV-suppressive activity” value is reported as “interferes with HIV replication as an antisense molecule”.

B9: CF-50: GSE, SEQ ID NO:39, sense; squalene synthetase gene (nucleic acid, listed as Homo sapiens)
sense: AAGTGAAATGCAGGTGAGAAGAACCTAAACATGAAAGGAAAGGGTGCCTCATCCCAGCAACCTGTCCTTGTGGGTGATGATCACTGTGCTGCTTGTGGCTCATGGCAGAGCATTCAGTGCCAA
modifications: chemistry not fully specified
notes: squalene synthetase gene
For B9, the “HIV-suppressive activity” value was “exhibits its HIV-suppressive activities in the sense orientation”.

B10: CF-42: GSE, SEQ ID NO:37, sense; squalene synthetase gene (nucleic acid, listed as Homo sapiens)
sense: TGGCTGGGACCTTTAGGAAAGTGAAATGCAGGTGAGAAGAACCTAAACATGAAAGGAAAGGGTGCCTCATCCCAGCAACCTGTCCTTGTGGGTGATGATCACTGTGCTGCTTGTGGCTCAT
modifications: chemistry not fully specified
notes: squalene synthetase gene
For B10, the “HIV-suppressive activity” value was “interferes with HIV replication in the sense orientation”.

B11: H1C-23G2: GSE, SEQ ID NO:113, antisense; human CTSB gene (nucleic acid, listed as Homo sapiens)
antisense: GCCGGTGGCTCACATGGCCTGTCTGCACTGTAACCACAGGCTGGGATGTAGCCAGGACTTGGTCTCCTTGGAAGACAGGTCTGATGTTTGGCCAATCCAGTCCTTCAGACCCTGTCTGAAACTTGTA
B11 was tested, and the “HIV-suppressive activity” value was “interferes with HIV replication as an antisense molecule”.

B12: H1C-2F9: GSE, SEQ ID NO:103, antisense; ArgRS gene (nucleic acid, listed as Homo sapiens)
antisense: ATACTTTAATTTTAAATTTTCTTCTTGTAACTGCTCCAAATTCGGAGAAGCTCCTAAACAGCCACAGTTTTTCAACCGGTCAATTTCAGCAGTCAGAGATTTAATCTCTTCTTCCTGCTGCAGCAGCCGCGCGGAGCACTCAGACATCAGTACGTCCATCCTCCCATCAGCG
For B12, the “HIV-suppressive activity” value was “interferes with HIV replication as an antisense molecule”.

B13: CF-619: GSE, SEQ ID NO:53, sense; Arg/Abl interacting protein (ArgBP2A) gene (nucleic acid, listed as Homo sapiens)
sense: GTTCCACCTCCAGTCCCGCCGCTTCGACCAAGAGATCGGTCTTCAACAGAAAAGCATGACTGGGATCCTCCAGA
modifications: chemistry not fully specified
B13 was tested, and the “HIV-suppressive activity” value was “interferes with HIV replication in the sense orientation”.

B14: H1C-37E11: GSE, SEQ ID NO:115, antisense; human cathepsin L gene (nucleic acid, listed as Homo sapiens)
antisense: GTCGACCTTCCTCTTTACCGTCCACCAGCTCACACAGTGGGGTAGCTGGCTGCTGAGGCAATTCCACAATGGTTTCTCT
With B14 the “HIV-suppressive activity” value was “interferes with HIV replication as an antisense molecule”.

B15: CF-287: GSE, SEQ ID NO:77, sense; Na+-D-glucose cotransport regulator gene (nucleic acid, listed as Homo sapiens)
sense: CAGGTTGTCTTTAAGATGTTCTTTTAGACAGCTGCACATTGTAGACCCTTTCACCTGCCCTACACCAAAGATGTACGATGCACTAGGAAACTGCTCATAGGATTTCTGTCAGCT
For B15, the “HIV-suppressive activity” value was “interferes with HIV replication in a sense orientation”.

B16: H1C-11H9: GSE, SEQ ID NO:99, antisense; human SHIP gene (nucleic acid, listed as Homo sapiens)
antisense: GGAACTCCAGGTAGAATTTGGTCTGGGACTTGGTCTTCAATGTGGCATAGCACCTGAGAAACTCAAT
In the case of B16, the “HIV-suppressive activity” value is reported as “interferes with HIV replication as an antisense molecule”.

B17: CF-547: GSE, SEQ ID NO:51, antisense; recepin endoprotease gene (nucleic acid, listed as Homo sapiens)
antisense: ACAGAAGGAGAGACCGAATACAAATTTGAATGGCAGAAAGGAGCCCCACGAGAAAAATATGCCAAAGATGACATGAACATCAGAGATCAGCCCTTTA
modifications: chemistry not fully specified
notes: recepin endoprotease gene
B17 was tested, and the “HIV-suppressive activity” value was “interferes with HIV replication as an antisense molecule”.

B18: CF-335: GSE, SEQ ID NO:35, antisense; protein phosphatase 2A gene (nucleic acid, listed as Homo sapiens)
antisense: GGTAAGGGTAGGGCACTTTTAATTTAAATGACTTCTTGCACCATCTTGCCTAATGGACTAGATTGGACTGTATCAACATTGATTTACTC
modifications: chemistry not fully specified
notes: protein phosphatase 2A gene
With B18 the “HIV-suppressive activity” value was “interferes with HIV replication as an antisense molecule”.

B19: CF-579: GSE, SEQ ID NO:61, sense; glucosidase alpha II gene (nucleic acid, listed as Homo sapiens)
sense: AGTTGGTATCAATGGAGTGGGAGAGGTGAGGAGATCACAAGAGGAATTTGGAGCCCAGGGTCAGCCCTCTCATCCTGCCCAAATGTTGGCAGAATCTGGGTCTTAGACTAGCATAAGTGAAGTCTGGGGAGGGCCGAAC
B19 was tested, and the “HIV-suppressive activity” value was “interferes with HIV replication in a sense orientation”.
